Data published in the DeepSol protein solubility set.

Assay: soluble on expression in E. coli; label from the status in PepcDB or PDB records

Row | Sequence | soluble on expression in E. coli
1 | MGSDKIHHHHHHMHIAIASGKGGTGKTTLAVNLAVHAARSGHPTVLADCDVEEPNAHLFMPGEPVMTLTHSLPVPAVDKAKCLGDSCRKCVEECRFKALTWMKGVMAFSELCHGCGLCMMICPSGAITETTRPVGTVEIRTPQLPVPAGASAGAAALTLVSGRMRISEAMAPPLIREVKQQAHAVSAGTPNGLTFWDSPPGTSCPMISTVENADYSVLVTEPTPFGLHDLRLAVETLHTLGRPFGVVINRDGMGDGRVREYLDRHRIPLLGTVPHSPQAAQAVSSGRLLIDAVDGMTGCFDRLLHTVLRHAHNAAQHGQEKTA | not soluble
2 | MSLKTTLPISLDWSTEEVIDVVHFFQAIEQAYDQGIAREDLLGKYRRFKEIVPSKSEEKQLFRAYEQENDVSCYQTIKKAREEMEEHIQMEGHHHHHH | soluble
3 | MPFKDQLFLASQYLAPHHLVSRLMGRAADCRAPEIKNRMIARFVRRYNVDMSEALVEDPLAYASFNDFFTRALKPDARPLDDEPGAALCPADGAISQIGAIDNGRIFQAKGHSFGLTDLLGGDAERAAPFAGGQFATIYLSPRDYHRVHMPLAGTLREMVHVPGRLFSVNPLTARSVPELFARNERVACLFDTEHGPMALVLVGAMIVASIETVWAGLVTPHKRQVRSVRYDAAARAPIHLDKGAEMGRFKLGSTVIVLFGPKRLRWLDLPSVRGPVRMGETLALPASTAISFPESELEHHHHHH | not soluble
4 | MGSDKIHHHHHHLSFIIRKALLTDVAAIVQLERAHVDDELLGSNSQLHAHSFTKSEVSQLINQHWFIVAEEQGVIIGYVMAAKWSFFSAQPLYRHIIQKLKFADLQGQALSTTNTCQYGPVWIQESKRGQGVFSALVTELKKQVADTFPFMVTYVAADNARSLAAHQQKAAMTEIDQFSFEQRDYCLLATTNIT | not soluble
5 | KRGRSVLVLDHAKKPGRKILISGGGRCNFTNYDVSASNYLCQNPHFVKSALSQYTNWDFISMVSKHGIEFEERDHGQLFCVDAFTAKDIVKMLLAECDMPNIQQRYQCDVHTIEKTEEGFRLHAGTEPVECESLVVATGGLSMPKLGATPFGYKVAEQ | not soluble
6 | MGSDKIHHHHHHMRLSELKDAGRSPTLPLSITLVDAAGSADLQLLTLLRVLPGQRYVGAGVWRGTPVLAKLLVGGNAARHFQRELQGVKLLAEQGLTTPTLLADGLKEGEGGWLLFEFLDGAQSLADAWAAVENLPVLADEQHLVLGEALTAVAHMHAQGLWQEDLHLDNLLRHAGKLYLIDGAGIRAETPGQQLSRPRVLENLGVFFAQLPKRLEPFIEELLVHYLLANAEHALPLEALQKQVDKVRNWRQKDYLDKAGRECSLFSVQRTLSGLQAIRRSEVEAMQPVLEQADALIDKGHLYKTGGAASVARIEVNGRQLVIKRYNIKNTAHWFKRFWRPSRAWHSWIEGHRLEFLDIATPRPLAVLEQRVLGLRSRAYLVTEYVDGPDLTACFAPHVESGDAPEEQVDALVHVMQQLIRERISHGDFKGHNLFWHNGQWSLIDLDAMCQHATQLSFAPAYARDRARLLRNWPTGSALHQRLDRLLPKLVD | not soluble
7 | MTALESSYLNLAYPPRLDLGPQLTHDQLRSSMQSTMARHKGGPVWLFAYGSLIWRPECSAVERKRGRVHGYHRGLYLWSHEHRGTPELPGLVFGLDRGGSCSGFAYRLPEEQLDASLYALWQREMPYPSYRPHWLNCRLEDGSQVQALGFVLERHLPSYAGNLPDDVLNQVFESACGRYGTTRDYVEQTVQALRSHAMPDRNLEARLKRCKGADAHLEHHHHHH | not soluble
8 | NSLTTHYRRSQLIALPVPGGKAKVEYCYAVNVPGDREIVTHSFAEWAVGDFNRQKETVLCDKLTAGSKITTECPSESFVGSRKHNGLSTSAKVMSMNASARSNSFVVNSGK | not soluble
9 | MSLEPTAPSLTEEDLTEVKKDALENLRVYLCEKIIAERHFDHLRAKKILSREDTEEISCRTSSRKRAGKMLDYLQENPKGLDTLVESIRREKTQNFLIQKITDEVLKLRNIKLEHLKGLKCSSCEPFPDGATNNLSRSNSDESNFSEKLRASTVMYHPEGESSTTPFFSTNSSLNLPVLEVGRTENTIFSSTTLPRPGDPGAPPLPPDLQLEEEGTCANSSEMFLPLRSRTVSREGHHHHHH | not soluble
10 | MGSDKIHHHHHHMSIIDLTKLEQKVATMWDSILTNSPFIHEVLDGKATKALYAIYMTETYHYTKHNAKNQALVGIMGKDLPGKYLSFCFHHAHEEAGHELMALSDIASIGFDREDVLSSKPLPATETLIAYLYWISATGNPVQRLGYSYWAENVYGYIDPVLKAIQSTLDLTPQSMKFFIAHSKIDAKHAEEVNEMLHEVCKTQEDVDSVVAVMENSLVLTARILDDVWKEYQLFQSGASDRYAFLRDNA | not soluble
11 | MRLSFRTLQRRNALGDAPRHRSAQRRAVKTGRRASRTACDAERRTIVERAWHDSLEHHHHHH | not soluble
12 | MSLSIFEHFQARYEAAKDEELSIQDFLALCKENKSAYANAAERLLLAIGEPEMIDTSKHSRLSRIFSNRVIARYKTFEDFYGMEEAIEQIVAYLKHAAQGLEERKQILYLLGPVGGGKSSLAEKLKALMQQMPIYVLSANGQRSPVNDHPFCLFDVNEDGELLKQEYGIDRRYLRSIMSPWAAKRLHEFGGDITKFKVVKVRPSILDQIAVAKTEPGDENNQDISSLVGKVDIRKLEHFSQDDPDAYSYSGALCRANQGLMEFVEMFKAPIKVLHPLLTATQEGNYNGTEGLSALPFDGMILAHSNESEWQTFRNNKNNEAFLDRVYIVKVPYCLRVSEEVKIYQKLLDHSELSKAPCAPSTLDLLAQFSVLSRLKVPENSSLFSKMRVYDGETLKDTDPKAKSYQEYRDYAGVDEGMSGLSTRFAFKILSRVFNFDHSEVAANPVHLFYVIEQQVEREQFPQETADRYNEFLKGYLIPRYVEFIGKEIQTAYLESYSEYGQNIFDRYVTYADFWIQDQEYRDPETGQLFDRSALNSELEKIEKTAGISNPKDFRNEIVNFVLRARANNNGQNPVWTSYEKLRTVIEKKMFSNTEDLLPVISFNAKTSSDDQKKHDDFVARMMEKGYTEKQVRLLSEWYLRVRKSSEGHHHHHH | soluble
13 | GHMSETYDFLFKFLVIGNAGTGKSCLLHQFIEKKFKDDSNHTIGVEFGSKIINVGGKYVKLQIWDTAGQERFRSVTRSYYRGAAGALLVYDITSRETYNALTNWLTDARMLASQNIVIILCGNKKDLDADREVTFLEASRFAQENELMFLETSALTGENVEEAFVQCARKILNKIESGELDPERMG | soluble
14 | MAGASETYTHTLTDVPIDIKYDSDDYFISGYSYGADVYMSSVNRVKLDSEINEDTRKFKVVADLTNMKPGTHKVPLKVVNLPSGVNATVSPTTITVTMGKKKTKEFPLEHHHHHH | not soluble
15 | AHHHHHHGSIWEEILNFEPYRAVEGNYRIWLDKNESPYDLPPQLKEEILEELKRIEFNRYPHITSDPLREALAEFYGLKKENIAVGNGSDELINYLVKMFKGKYIVVTSPTFGMYSFFAKLHGIPVKDIPLKEDFTIDGERIAEEGKAASAIFIASPNNPTGNSQPENEVLKVLDSGRVVILDEAYSEFSGKSFIPKISEYENLVILRTFSKAFGLAGIRCGYMIANEKIIDALYRILPPYNLNSLTMTVAIKMLEHYDIVKRRIKLIVKERERIRREFIEYSYPSEANFLLMKLDAYDYLLKKGIVVRKLSGRLEGHIRVTIGKKWENDELIKALKEFLEECRCG | soluble
16 | MAPINGIRDDDAASIRLRDSFRDEVSKRMGELLLKGQTMLDEYCPTCSGILMEDRALVRRCVTCELFREKSSVIVGEVSLQDEDLNEAVNNKIPTPAAPVNKPAKKAVLQKSAPAKKKEAVPAAAEPSSSDTIESATTAVLQKLEWATDRLNSTEEVARVMDFLSVIQKSAETLKALRI | not soluble
17 | MGSDKIHHHHHHMVVLMTKPGTSDFVWNGIPLSMELNLWNIKEYSGSVAMKFDGEKITFDADIQNLSPKEPERYVLGYPEFYYGYKPWENHTAEGSKLPVPVSSMKSFSVEVSFDIHHEPSLPLNFAMETWLTREKYQTEASIGDVEIMVWFYFNNLTPGGEKIEEFTIPFVLNGESVEGTWELWLAEWGWDYLAFRLKDPVKKGRVKFDVRHFLDAAGKALSSSARVKDFEDLYFTVWEIGTEFGSPETKSAQFGWKFENFSIDLEVRE | not soluble
